Experimental data: the supplement of paper PMC11780869

System: Bacillus subtilis
Test: cleaved RNA product abundance (RNA/gDNA barcode ratio) relative to median wild-type variant (ratio to wild type); higher = more accumulation of the downstream cleavage product
Conditions: experiment (reporter, strain, medium): exp 8a: truncated aprE reporter, strain BJT201 with 2% xylose (RNase J1 expressed); cleavage site: glnRA (positions -5 to +31 mutated)
Procedure, shortened: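 Sequencing of barcodes from gel-selected, reverse-transcribed cleaved RNA and from genomic DNA, with UMI collapsing, yielded a per-construct RNA:gDNA ratio. Scaled to the median construct with the unmutated site, this ratio is the cleaved product abundance. The barcoded reporters (truncated aprE or tetM mRNAs with mutagenized RNase Y cleavage-site windows) were integrated into the B. subtilis chromosome, and cultures grew in LB at 37°C from OD600 0.0003 to 0.3.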

Sequence | cleaved RNA product abundance
CGACATGTCCCGCTTCTTTCATTAATCTGTTAGCAACTGTTTTGCTATATACAATTACCTTTTAAGAGGAGGAAT | 0.89
CGACATGTCCCGCTTCTTTCATTAATCTGTTAGCAACTGTTTTGCTATATACAGTTACCTTTTAAGAGGAGGAAT | 0.249
CGACATGTCCCGCTTCTTTCATTAATCTGTTAGCAACTGTTTTGCTATATACATATACCTTTTAAGAGGAGGAAT | 0.829
CGACATGTCCCGCTTCTTTCATTAATCTGTTAGCAACTGTTTTGCTATATACATCTACCTTTTAAGAGGAGGAAT | 0.993
CGACATGTCCCGCTTCTTTCATTAATCTGTTAGCAACTGTTTTGCTATATACATTCACCTTTTAAGAGGAGGAAT | 0.488
CGACATGTCCCGCTTCTTTCATTAATCTGTTAGCAACTGTTTTGCTATATACATTGACCTTTTAAGAGGAGGAAT | 0.991
CGACATGTCCCGCTTCTTTCATTAATCTGTTAGCAACTGTTTTGCTATATACATTTACATTTTAAGAGGAGGAAT | 1.2
CGACATGTCCCGCTTCTTTCATTAATCTGTTAGCAACTGTTTTGCTATATACATTTACCATTTAAGAGGAGGAAT | 2.04
CGACATGTCCCGCTTCTTTCATTAATCTGTTAGCAACTGTTTTGCTATATACATTTACCTTTTAAGAGGAGGAAT | 1.16
CGACATGTCCCGCTTCTTTCATTAATCTGTTAGCAACTGTTTTGCTATATACATTTACTTTTTAAGAGGAGGAAT | 1.68
CGACATGTCCCGCTTCTTTCATTAATCTGTTAGCAACTGTTTTGCTATATACATTTATCTTTTAAGAGGAGGAAT | 0.969
CGACATGTCCCGCTTCTTTCATTAATCTGTTAGCAACTGTTTTGCTATATACTTTTACCTTTTAAGAGGAGGAAT | 0.728
CGACATGTCCCGCTTCTTTCATTAATCTGTTAGCAACTGTTTTGCTATATAGATTTACCTTTTAAGAGGAGGAAT | 0.587
CGACATGTCCCGCTTCTTTCATTAATCTGTTAGCAACTGTTTTGCTATATCCATTTACCTTTTAAGAGGAGGAAT | 0.263
CGACATGTCCCGCTTCTTTCATTAATCTGTTAGCAACTGTTTTGCTTTATACATTTACCTTTTAAGAGGAGGAAT | 0.247
CGACATGTCCCGCTTCTTTCATTAATCTGTTAGCAACTGTTTTGGTATATACATTTACCTTTTAAGAGGAGGAAT | 0.264
CGACATGTCCCGCTTCTTTCATTAATCTGTTAGCAACTGTTTTTCTATATACATTTACCTTTTAAGAGGAGGAAT | 0.483
CGACATGTCCCGCTTCTTTCATTAATCTGTTAGCAACTTTTTTGCTATATACATTTACCTTTTAAGAGGAGGAAT | 0.706
CGACATGTCCCGCTTCTTTCATTAATCTGTTAGCAATTGTTTTGCTATATACATTTACCTTTTAAGAGGAGGAAT | 1.59
CGACATGTCCCGCTTCTTTCATTAATCTGTTAGCTACTGTTTTGCTATATACATTTACCTTTTAAGAGGAGGAAT | 0.743
CGACATGTCCCGCTTCTTTCATTAATCTGTTAGGAACTGTTTTGCTATATACATTTACCTTTTAAGAGGAGGAAT | 0.268
CGACATGTCCCGCTTCTTTCATTAATCTGTTATCAACTGTTTTGCTATATACATTTACCTTTTAAGAGGAGGAAT | 0.403
CGACATGTCCCGCTTCTTTCATTAATCTGTTATCAATTGTTTTGCTATATACATTTACCTTTTAAGAGGAGGAAT | 0.383
CGACATGTCCCGCTTCTTTCATTAATCTTTTAGCAACTGTTTTACTATATACATTTACCTTTTAAGAGGAGGAAT | 0.94
CGACATGTCCCGCTTCTTTCATTAATCTTTTAGCAACTGTTTTGCTATATACATTTACCTTTTAAGAGGAGGAAT | 1.14

Sequence | cleaved RNA product abundance
CGACATGTCCCGCTTCTTTCATTAATGAGTTAGCAACTGTTTTGCTATATACATTTACCTTTTAAGAGGAGGAAT | 1.18
CGACATGTCCCGCTTCTTTCATTAATGCGATAGCAACTGTTTTGCTATATACATTTACCTTTTAAGAGGAGGAAT | 0.395
CGACATGTCCCGCTTCTTTCATTAATGCGTTAACAACTGTTTTGCTATATACATTTACCTTTTAAGAGGAGGAAT | 0.228
CGACATGTCCCGCTTCTTTCATTAATGCGTTAGCAAATGTTTTGCTATATACATTTACCTTTTAAGAGGAGGAAT | 0.927
CGACATGTCCCGCTTCTTTCATTAATGCGTTAGCAACTATTTTGCTATATACATTTACCTTTTAAGAGGAGGAAT | 1.28
CGACATGTCCCGCTTCTTTCATTAATGCGTTAGCAACTGTGTTGCTATATACATTTACCTTTTAAGAGGAGGAAT | 0.406
CGACATGTCCCGCTTCTTTCATTAATGCGTTAGCAACTGTTTTACTATATACATTTACCTTTTAAGAGGAGGAAT | 0.324
CGACATGTCCCGCTTCTTTCATTAATGCGTTAGCAACTGTTTTGCTATATACATTCACCTTTTAAGAGGAGGAAT | 0.329
CGACATGTCCCGCTTCTTTCATTAATGCGTTAGCAACTGTTTTGCTATATACATTTACATTTTAAGAGGAGGAAT | 0.652
CGACATGTCCCGCTTCTTTCATTAATGCGTTAGCAACTGTTTTGCTATATACATTTACCTTTTAAGAGGAGGAAT | 0.633
CGACATGTCCCGCTTCTTTCATTAATGCGTTAGCAACTGTTTTGCTATATAGATTTACCCTTTAAGAGGAGGAAT | 0.761
CGACATGTCCCGCTTCTTTCATTAATGCGTTAGCAACTGTTTTGGTATATACATTTACCTTTTAAGAGGAGGAAT | 0.244
CGACATGTCCCGCTTCTTTCATTAATGCGTTAGCAACTGTTTTTCTATATACATTTACCTTTTAAGAGGAGGAAT | 0.479
CGACATGTCCCGCTTCTTTCATTAATGCGTTAGCAATTGTTTTGCTATATACATTTACCTTTTAAGAGGAGGAAT | 0.995
CGACATGTCCCGCTTCTTTCATTAATGCTTTAGCAACTGTTTTGCTATATACATTTACCTTTTAAGAGGAGGAAT | 0.618
CGACATGTCCCGCTTCTTTCATTAATTCATTAGCAACTGTTTTGCTATATACATTTACCTTTTAAGAGGAGGAAT | 0.776
CGACATGTCCCGCTTCTTTCATTAATTCGTCAGCAACTGTTTTGCTATATACATTTACCTTTTAAGAGGAGGAAT | 0.639
CGACATGTCCCGCTTCTTTCATTAATTCGTTAACAACTGTTTTGCTATATACATTTACCTTTTAAGAGGAGGAAT | 0.209
CGACATGTCCCGCTTCTTTCATTAATTCGTTACCAACTGTTTTGCTATATACATTTACCTTTTAAGAGGAGGAAT | 0.231
CGACATGTCCCGCTTCTTTCATTAATTCGTTAGAAACTGTTTTGCTATATACATTTACCTTTTAAGAGGAGGAAT | 0.285
CGACATGTCCCGCTTCTTTCATTAATTCGTTAGCAAATGTTTTGCAATATACATTTACCTTTTAAGAGGAGGAAT | 0.563
CGACATGTCCCGCTTCTTTCATTAATTCGTTAGCAAATGTTTTGCTATATACATTTACCTTTTAAGAGGAGGAAT | 0.87
CGACATGTCCCGCTTCTTTCATTAATTCGTTAGCAACAGTTTTGCTATATACATTTACCTTTTAAGAGGAGGAAT | 0.913
CGACATGTCCCGCTTCTTTCATTAATTCGTTAGCAACTATTTTGCTATATACATTTACCTTTTAAGAGGAGGAAT | 1.64
CGACATGTCCCGCTTCTTTCATTAATTCGTTAGCAACTGATTTGCTATATACATTTACCTTTTAAGAGGAGGAAT | 0.876
